Source: patent US20250281632A1, “LGALS3BP ANTIBODY-DRUG-CONJUGATE AND ITS USE FOR THE TREATMENT OF CANCER” (MEDIAPHARMA S.R.L., priority 2018, published 2025)

T1: LGALS3BP at the membrane of human tumor cells (human, UniProt Q08380 19-585)
T1 construct: whole, on cells; A secreted protein that stays close to the plasma membrane; It was detected by immunofluorescence on cells; also called Gal-3BP
T1 sequence (looked up): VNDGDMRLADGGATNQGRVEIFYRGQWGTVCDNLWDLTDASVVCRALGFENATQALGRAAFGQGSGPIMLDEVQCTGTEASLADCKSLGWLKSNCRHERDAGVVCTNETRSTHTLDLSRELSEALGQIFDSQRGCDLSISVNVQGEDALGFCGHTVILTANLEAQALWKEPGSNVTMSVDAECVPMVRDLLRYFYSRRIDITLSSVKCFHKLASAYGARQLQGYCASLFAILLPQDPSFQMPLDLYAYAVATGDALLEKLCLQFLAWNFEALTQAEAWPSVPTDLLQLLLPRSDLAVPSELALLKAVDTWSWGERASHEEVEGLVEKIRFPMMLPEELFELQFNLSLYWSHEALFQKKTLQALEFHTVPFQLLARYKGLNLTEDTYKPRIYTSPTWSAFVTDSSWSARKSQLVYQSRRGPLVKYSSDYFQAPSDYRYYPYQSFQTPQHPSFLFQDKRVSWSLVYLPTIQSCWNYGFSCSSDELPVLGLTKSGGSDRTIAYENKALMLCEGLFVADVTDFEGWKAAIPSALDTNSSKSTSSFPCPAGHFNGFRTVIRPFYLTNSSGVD

T2: Human recombinant LGALS3BP (human, UniProt Q08380 19-585)
T2 construct: also called 90K
T2 sequence (looked up): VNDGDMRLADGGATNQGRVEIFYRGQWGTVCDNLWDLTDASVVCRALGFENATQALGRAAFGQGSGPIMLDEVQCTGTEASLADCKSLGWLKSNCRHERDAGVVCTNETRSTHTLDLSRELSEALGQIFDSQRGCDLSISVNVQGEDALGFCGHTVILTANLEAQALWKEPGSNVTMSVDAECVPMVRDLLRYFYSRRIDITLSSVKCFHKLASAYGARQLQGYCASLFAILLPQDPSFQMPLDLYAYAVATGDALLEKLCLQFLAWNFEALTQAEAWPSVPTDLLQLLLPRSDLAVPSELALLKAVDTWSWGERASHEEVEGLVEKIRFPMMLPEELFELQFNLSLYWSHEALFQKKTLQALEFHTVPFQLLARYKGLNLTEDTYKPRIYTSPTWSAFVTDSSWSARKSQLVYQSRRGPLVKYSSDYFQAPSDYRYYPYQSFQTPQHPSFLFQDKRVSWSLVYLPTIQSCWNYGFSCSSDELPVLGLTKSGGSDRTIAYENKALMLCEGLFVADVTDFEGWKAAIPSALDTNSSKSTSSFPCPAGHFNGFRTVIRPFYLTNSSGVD


Tests used:
[1] = system: Neuroblastoma cell lines (SHSY5Y, Kelly and hNB); assay: MTT cell killing assay; assay type: cell-based, human; conditions: 72 hours, A375m melanoma cells as positive control (FIG. 19)
Description: Neuroblastoma cell lines (SHSY5Y, Kelly and hNB) and A375m melanoma cell line were plated and treated with increasing concentrations of SH-DM3 for 72 hours. The cell killing activity of the drug was evaluated by MTT assay.

[2] = biological target: T1, LGALS3BP at the membrane of human tumor …; assay: confocal immunofluorescence on MDA-MB-231, A375 and FADU cells, anti-human IgG-Alexa Fluor 488
Description: Human tumor cells were grown on glass coverslips for 24 hours. […] At the end of incubation, cells were fixed in 4% paraformaldehyde for 15 minutes at room temperature, permeabilized with 0.25% Triton X-100 for 5 minutes, and blocked with 0.1% BSA for 1 hour at room temperature. Coverslips were then incubated with anti-human IgG-Alexa Fluor 488 conjugated. DRAQ5 was used to visualize nuclei. Images were acquired with a Zeiss LSM 510 meta-confocal microscopy using 488- and 633-nm lasers. [0142] […] [0143] A-B; MDA-MB-231 breast cancer; C-D, A375 melanoma; E-F, FADU, H&N cancer; G-H, HBF, normal bronchial fibroblasts.

[3] = biological target: T2, Human recombinant LGALS3BP; assay: ELISA, plate-coated human recombinant LGALS3BP, anti-human IgG-HRP detection
Description: Human recombinant LGALS3BP (2 μg/ml) was pre-coated overnight at 4° C. on 96 well-plates NUNC Maxisorp modules. […] After several washes with PBS-0, 1% Tween-20, anti-human IgG-HRP was added and incubated for 1 hour at room temperature. After washes, stabilized chromogen was added for at least 10 minutes in the dark, before stopping the reaction with the addition of 1 N H₂SO₄. The resulting color was read at 492 nm with an Elisa reader.

binding result [2]	binding result [3]	Molecule	cell killing activity [1]
		COc1cc2cc(c1Cl)N(C)C(=O)C[C@H](OC(=O)C(C)N(C)C(=O)CCC(C)S)[C@]1(C)O[C@H]1[C@H](C)C1C[C@@](O)(NC(=O)O1)[C@H](OC)/C=C/C=C(\C)C2 (some centres unmarked) [SH DM3]	potent cell killing activity
binds	binds	Antibody 1959-sss (C220S-C226S-C229S) (antibody, V domains shown, Humanized SP-2 on a human IgG framework, with the hinge cysteines 220, 226 and 229 changed to serine, so no interchain disulfides; Made in CHO cells) VH: QVQLQESGPGLVKPSETLSLTCAVSGYSISSGYYWTWIRQPPGKGLEWIGYITYDGKNNYSPSLKNRVTISVDTSKNQFSLKLSSVTAADTAVYYCAREGSSVITTGFTFWGQGTLVTVSS VL: DIQMTQSPSTLSASVGDRVTITCSASSRVSYMYWYQQKPGKAPKLLIYLTSNLASGVPARFSGSGSGTEFTLTISSLQPDDFATYYCQQWTSHPPTFGQGTKVEVKR	
binds	binds	1959-sss-DM3 (antibody, V domains shown, maytansinoid DM3 joined by a disulfide bond to a cysteine of the light chain (DAR 2; light chain mass 24053 Da against 23261 Da reduced); residue number not given, also called Ab1959-SSS-DM3) VH: QVQLQESGPGLVKPSETLSLTCAVSGYSISSGYYWTWIRQPPGKGLEWIGYITYDGKNNYSPSLKNRVTISVDTSKNQFSLKLSSVTAADTAVYYCAREGSSVITTGFTFWGQGTLVTVSS VL: DIQMTQSPSTLSASVGDRVTITCSASSRVSYMYWYQQKPGKAPKLLIYLTSNLASGVPARFSGSGSGTEFTLTISSLQPDDFATYYCQQWTSHPPTFGQGTKVEVKR	
